# Measurements taken from patent US20220281997A1.
# Molecular target: camel-derived heavy-chain antibodies on camel PBMC cells
# Test: flow cytometry, PE-labeled antibody on PBMC of a non-immunized camel
row,Binder,proportion of PBMC cells specific for heavy-chain antibodies
1,"R166.C5 (antibody, V domains shown) VH: QSVEESGGRLVTPGTPLTLTCTVSGFSLRNFAMSWVRQAPGKGLEWIGIIYSGGTRDYATWAKGRFTISKTSTTVDLKMTSPTTEDTATYFCARDRSPDYSAAFLLWGQGTLVTVSS VL: IVMTQTPSSKSVPVGDTVTINCQASESVYSNNHLAWFQQKPGQPPKLLIYSASTLESGVPSRFKGSGSGTQFTLTISGVQCDDAATYYCAGYKSSDTDGTSFGGGTEVVVKG",22.8%
2,"R166.E7 (antibody, V domains shown) VH: QSVEESGGRLVTPGTPLTLTCTVSGFSLSSFAMSWVRQAPGKGLEWIGIIYTGGTRDYATWAKGRFTISKTSTTVDLKMTSPTTEDTATYFCARDRSPDYSAAFNLWGQGTLVTVSS VL: IVMTQTPSSKSVPVGDTVTINCQASESVYSNNHLAWFQQKPGQPPKLLIYSASTLESGVPSRFKGSGSGTQFTLTISGVQCDDAATYYCAGYKSSDTDGTSFGGGTEVVVKG",23.3%
3,"R166.G8 (antibody, V domains shown) VH: LEQSGGGAEGGLVKPGGSLELCCKASGFSLSNIYWICWVRQAPGTGLEWIGCINSGSNSYTYYANWVDGRFTLSRDIDQSTGCLQLNSLTAADTAMYYCARDRDAADTSDWSLNFWGQGTLVTVSS VL: QVLTQTPSSVSAAVGGTVTISCQSSDSVNNDNWLAWYQQKPGQPPKLLIYQASKLASGVPSRFSGSGSGTQFTLTISGVQCDDAANYYCQGTGYSSTWYVAFGGGTEVVVKG",17.2%

# More lines, now with the values ahead:
row,proportion of PBMC cells specific for heavy-chain antibodies,Binder
1,23.6%,"R166.H8 (antibody, V domains shown) VH: QSVEESGGRLVTPGTPLTLTCTVSGFSLSSFAMSWVRQAPGKGLEWIGIIYATGGTRDYATWAAGRFTISKTSTTVGLKMTSPTTEDTATYFCARDRSPDYSAAFNLWGQGTLVTVSS VL: IVMTQTPSSKSVPVGDTVTINCQASESVYSNNHLAWFQQKPGQPPKLLIYSASTLESGVPSRFKGSGSGTQFTLTISGVQCDDAATYYCAGYKSSDTDGTSFGGGTEVVVKG"
2,24.2%,"R166.H9 (antibody, V domains shown) VH: QSLEESGGRLVTPGTPLTLTCTASGFSLNNYNMIWVRQAPGEGLEWIGMIGDGDDAAWYASWAKGRFTISKTSTTVDLEVTSLTTEDTAIYFCARYLSFTRLDLWGQGTLVTVSS VL: AVLTQTPSPVSAAVGGTVTINCQSSQSVYHNNWLAWYQQKPGQPPKLLIYGAATLASGVPSRFKGSGSGTQFTFTITDVQCDDVGTYYCAGVYNDDSENAFGGGTEVVVKG"
